The supplement of paper PMC11246515
± gives the standard deviation of the averaged measurements.

Assay: total protein half-life in vivo (active degradation + dilution); higher = more stable protein
[1] = E. coli NCM3722 delta-clpP delta-lon delta-hslV, growth: N-lim chemostat, doubling time 6 h
[2] = E. coli NCM3722 delta-clpP, growth: N-lim chemostat, doubling time 6 h
[3] = E. coli NCM3722 delta-hslV, growth: N-lim chemostat, doubling time 6 h
[4] = E. coli NCM3722 delta-lon, growth: N-lim chemostat, doubling time 6 h
[5] = wild type E. coli NCM3722, growth: C-lim chemostat, doubling time 6 h
[6] = wild type E. coli NCM3722, growth: C-lim chemostat, doubling time 12 h
[7] = wild type E. coli NCM3722, growth: N-lim chemostat, doubling time 6 h
[8] = wild type E. coli NCM3722, growth: N-lim chemostat, doubling time 12 h
[9] = wild type E. coli NCM3722, growth: P-lim chemostat, doubling time 6 h
[10] = E. coli NCM3722 delta-smpB, growth: N-lim chemostat, doubling time 6 h
[11] = wild type E. coli NCM3722, growth: C-lim chemostat, doubling time 3 h
[12] = wild type E. coli NCM3722, growth: P-lim chemostat, doubling time 12 h

Sequence | total protein half-life in vivo [1] [h] | total protein half-life in vivo [2] [h] | total protein half-life in vivo [3] [h] | total protein half-life in vivo [4] [h] | total protein half-life in vivo [5] [h] | total protein half-life in vivo [6] [h] | total protein half-life in vivo [7] [h] | total protein half-life in vivo [8] [h] | total protein half-life in vivo [9] [h] | total protein half-life in vivo [10] [h] | total protein half-life in vivo [11] [h] | total protein half-life in vivo [12] [h]
MLSTLRRTLFALLACASFIVHAAAPDEITTAWPVNVGPLNPHLYTPNQMFAQSMVYEPLVKYQADGSVIPWLAKSWTHSEDGKTWTFTLRDDVKFSNGEPFDAEAAAENFRAVLDNRQRHAWLELANQIVDVKALSKTELQITLKSAYYPFLQELALPRPFRFIAPSQFKNHETMNGIKAPIGTGPWILQESKLNQYDVFVRNENYWGEKPAIKKITFNVIPDPTTRAVAFETGDIDLLYGNEGLLPLDTFARFSQNPAYHTQLSQPIETVMLALNTAKAPTNELAVREALNYAVNKKSLIDNALYGTQQVADTLFAPSVPYANLGLKPSQYDPQKAKALLEKAGWTLPAGKDIREKNGQPLRIELSFIGTDALSKSMAEIIQADMRQIGADVSLIGEEESSIYARQRDGRFGMIFHRTWGAPYDPHAFLSSMRVPSHADFQAQQGLADKPLIDKEIGEVLATHDETQRQALYRDILTRLHDEAVYLPISYISMMVVSKPELGNIPYAPIATEIPFEQIKPVKP | 6.58 | 6.35 | > 8 | > 8 | > 8 | > 16 | 6.2 | > 16 | 6.61 | – | – | –
MLSYRHSFHAGNHADVLKHTVQSLIIESLKEKDKPFLYLDTHAGAGRYQLGSEHAERTGEYLEGIARIWQQDDLPAELEAYINVVKHFNRSGQLRYYPGSPLIARLLLREQDSLQLTELHPSDYPLLRSEFQKDSRARVEKADGFQQLKAKLPPVSRRGLILIDPPYEMKTDYQAVVSGIAEGYKRFATGIYALWYPVVLRQQIKRMIHDLEATGIRKILQIELAVLPDSDRRGMTASGMIVINPPWKLEQQMNNVLPWLHSKLVPAGTGHATVSWIVPE | 4.85 ± 0.21 | 5.06 ± 0.45 | 4.81 ± 0.14 | 4.96 ± 0.05 | 6.11 ± 0.47 | 10.7 ± 0.25 | 5.06 ± 0.073 | 8.35 ± 0.22 | 6.55 ± 0.2 | 4.87 ± 0.07 | 3.16 ± 0.27 | 14 ± 2.8
MLTEQQRRELDWEKTDGLMPVIVQHAVSGEVLMLGYMNPEALDKTLESGKVTFFSRTKQRLWTKGETSGNFLNVVSIAPDCDNDTLLVLANPIGPTCHKGTSSCFGDTAHQWLFLYQLEQLLAERKSADPETSYTAKLYASGTKRIAQKVGEEGVETALAATVHDRFELTNEASDLMYHLLVLLQDQGLDLTTVIENLRKRHQ | 5.08 ± 0.17 | 4.38 ± 0.43 | 5.44 ± 1.4 | 4.24 ± 0.072 | 5.63 ± 1 | – | 4.51 ± 0.3 | 6.795 ± 0.027 | – | 4.046 ± 0.0072 | 2.92 ± 0.14 | 12.9 ± 3.1
MLTIQFLCPLPNGLHARPAWELKEQCSQWQSEITFINHRQNAKADAKSSLALIGTGTLFNDSCSLNISGSDEEQARRVLEEYIQVRFIDSDSVQPTQAELTAHPLPRSLSRLNPDLLYGNVLASGVGVGTLTLLQSDSLDSYRAIPASAQDSTRLEHSLATLAEQLNQQLRERDGESKTILSAHLSLIQDDEFAGNIRRLMTEQHQGLGAAIISNMEQVCAKLSASASDYLRERVSDIRDISEQLLHITWPELKPRNKLVLEKPTILVAEDLTPSQFLSLDLKNLAGMILEKTGRTSHTLILARASAIPVLSGLPLDAIARYAGQPAVLDAQCGVLAINPNDAVSGYYQVAQTLADKRQKQQAQAAAQLAYSRDNKRIDIAANIGTALEAPGAFANGAEGVGLFRTEMLYMDRDSAPDEQEQFEAYQQVLLAAGDKPIIFRTMDIGGDKSIPYLNIPQEENPFLGYRAVRIYPEFAGLFRTQLRAILRAASFGNAQLMIPMVHSLDQILWVKGEIQKAIVELKRDGLRHAETITLGIMVEVPSVCYIIDHFCDEVDFFSIGSNDMTQYLYAVDRNNPRVSPLYNPITPSFLRMLQQIVTTAHQRGKWVGICGELGGESRYLPLLLGLGLDELSMSSPRIPAVKSQLRQLDSEACRELARQACECRSAQEIEALLTAFTPEEDVRPLLALENIFVDQDFSNKEQAIQFLCGNLGVNGRTEHPFELEEDVWQREEIVTTGVGFGVAIPHTKSQWIRHSSISIARLAKPIGWQSEMGEVELVIMLTLGANEGMNHVKVFSQLARKLVNKNFRQSLFAAQDAQSILTLLETELTF | 6.54 | – | – | – | – | – | – | – | 3.21 | 2.21 | 2.36 | –
MLVSSNVTMQFGSKPLFENISVKFGGGNRYGLIGANGSGKSTFMKILGGDLEPTLGNVSLDPNERIGKLRQDQFAFEEFTVLDTVIMGHKELWEVKQERDRIYALPEMSEEDGYKVADLEVKYGEMDGYSAEARAGELLLGVGIPVEQHYGPMSEVAPGWKLRVLLAQALFADPDILLLDEPTNNLDIDTIRWLEQVLNERDSTMIIISHDRHFLNMVCTHMADLDYGELRVYPGNYDEYMTAATQARERLLADNAKKKAQIAELQSFVSRFSANASKSRQATSRARQIDKIKLEEVKASSRQNPFIRFEQDKKLFRNALEVEGLTKGFDNGPLFKNLNLLLEVGEKLAVLGTNGVGKSTLLKTLVGDLQPDSGTVKWSENARIGYYAQDHEYEFENDLTVFEWMSQWKQEGDDEQAVRSILGRLLFSQDDIKKPAKVLSGGEKGRMLFGKLMMQKPNILIMDEPTNHLDMESIESLNMALELYQGTLIFVSHDREFVSSLATRILEITPERVIDFSGNYEDYLRSKGIE [P0A9U3] | 5.14 ± 0.66 | 4.36 ± 0.29 | 4.35 ± 0.22 | 4.4 ± 0.35 | 5.571 ± 0.029 | 10.1 ± 0.12 | 4.218 ± 0.03 | 6.54 ± 0.14 | 5.08 ± 0.85 | 4.27 ± 0.19 | 2.9 ± 0.28 | 8.98 ± 1.4
MLVVELIIVLLAIFLGARLGGIGIGFAGGLGVLVLAAIGVKPGNIPFDVISIIMAVIAAISAMQVAGGLDYLVHQTEKLLRRNPKYITILAPIVTYFLTIFAGTGNISLATLPVIAEVAKEQGVKPCRPLSTAVVSAQIAITASPISAAVVYMSSVMEGHGISYLHLLSVVIPSTLLAVLVMSFLVTMLFNSKLSDDPIYRKRLEEGLVELRGEKQIEIKSGAKTSVWLFLLGVVGVVIYAIINSPSMGLVEKPLMNTTNAILIIMLSVATLTTVICKVDTDNILNSSTFKAGMSACICILGVAWLGDTFVSNNIDWIKDTAGEVIQGHPWLLAVIFFFASALLYSQAATAKALMPMALALNVSPLTAVASFAAVSGLFILPTYPTLVAAVQMDDTGTTRIGKFVFNHPFFIPGTLGVALAVCFGFVLGSFML [P0ABN5] | 5.71 | 6.38 ± 0.28 | – | – | 6.25 | – | – | – | 6.8 ± 0.54 | 5.933 ± 0.026 | > 4 | 12.4 ± 0.89
MLVYWLDIVGTAVFAISGVLLAGKLRMDPFGVLVLGVVTAVGGGTIRDMALDHGPVFWVKDPTDLVVAMVTSMLTIVLVRQPRRLPKWMLPVLDAVGLAVFVGIGVNKAFNAEAGPLIAVCMGVITGVGGGIIRDVLAREIPMILRTEIYATACIIGGIVHATAYYTFSVPLETASMMGMVVTLLIRLAAIRWHLKLPTFALDENGR [P0AFP0] | 6.04 | 5.6 | – | – | – | 9.77 | – | – | – | – | 2.95 | –
